Measurements published in patent US20100243450, “NON-EQUILIBRIUM CAPILLARY ELECTROPHORESIS OF EQUILIBRIUM MIXTURES (NECEEM)-BASED METHODS FOR DRUG AND DIAGNOSTIC DEVELOPMENT” (published 2010).

How the values were obtained:
[1] = target: T1, SSB (single-stranded DNA-binding protein) (UniProt P0AGE0 P0AGE0:2-178); test: NECEEM run buffer 25 mM tetraborate pH 9.4 with 100 nM SSB; binds via single-stranded overhang; settings: chain copies: 4; label: 5'-fluorescein on DNA-1; duplex with 10-nt single-stranded overhang
T1 sequence (P0AGE0 2-178, one chain of several): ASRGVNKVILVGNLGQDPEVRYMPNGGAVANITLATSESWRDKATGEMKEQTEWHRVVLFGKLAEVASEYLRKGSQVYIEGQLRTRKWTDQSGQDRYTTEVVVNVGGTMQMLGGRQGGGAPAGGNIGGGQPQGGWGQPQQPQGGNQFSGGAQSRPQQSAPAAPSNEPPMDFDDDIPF

[2] = target: T1, SSB (single-stranded DNA-binding …); test: NECEEM run buffer 25 mM tetraborate pH 9.4 with 100 nM SSB; fully double-stranded, not bound; settings: chain copies: 4; label: 5'-fluorescein on DNA-1; duplex without single-stranded overhang
[3] = target: T1, SSB (single-stranded DNA-binding …); test: NECEEM; 25 mM tetraborate pH 9.4, incubated at room temperature; koff 3.3e-2 s-1, kon 1.2e5 M-1 s-1; settings: chain copies: 4; label: 5'-fluorescein
Method: SSB and a fluorescently-labeled 15-mer ssDNA oligonucleotide, 5′-fluorescein-[…] ([…]) were used in this example (Berezovski and Krylov J. Amer. Chem. Soc. 2002, 124, 13674). NECEEM separation of protein-DNA complexes was performed using a laboratory-built CE instrument with fluorescence detector described in detail elsewhere (Wu and Dovichi J. Chromatogr. 1989, 480, 141). A 488 nm line of an Argon-ion laser was utilized to excite the fluorescence of the DNA. Uncoated fused silica capillaries of 40 cm×20 μm I.D.×150 μm O.D. were used. The electrophoresis was run with a positive electrode at the injection end biased at +24 kV. The run buffer for NECEEM was 25.0 mM tetraborate at pH 9.4. The samples were injected into the capillary by a pressure pulse of 1 s×9.1 kPa; the length of corresponding sample plug was 0.93 mm as was calculated using the Poiseulle equation (Krylov et al. Anal. Chem. 2000, 72, 872). The capillary was rinsed with the run buffer solution for 2 minutes prior to each run. At the end of each run, the capillary was rinsed with 100 mM NaOH for 2 minutes, followed by a rinse with deionized water for 2 minutes.
Equilibrium mixtures of SSB, fDNA and SSB•fDNA complex were prepared by mixing solutions of 16 μM SSB and 205 nM fDNA in the run buffer at a desired volume ratio and incubating them at room temperature to reach equilibrium prior to the analysis. […]

B1: DNA-1/DNA-3 hybrid (mixed)
DNA 1: GCGGAGCGTGGCAGG
DNA 2: CCTGCCACGCTCCGCTCTAAAAATAA
binding result [1]: binds

B2: DNA-1/DNA-3/DNA-2 hybrid (dsDNA)
DNA 1: GCGGAGCGTGGCAGG
DNA 2: CCTGCCACGCTCCGCTCTAAAAATAA
DNA 3: TTATTTTTAG
binding result [2]: no binding

GCGGAGCGTGGCAGG (ssDNA) [fDNA 15-mer (DNA-1)]
Kd [3]: 280 nM
